Results as given in PMC4735476, “Dataset concerning GroEL chaperonin interaction with proteins” (Data in Brief, 2016).

Biological target: T1, GroEL chaperonin ( (purified from Escherichia …, UniProt P0A6F5 1-548))
T1 construct: GroEL chaperonin, purified from Escherichia coli cells (HB101 strain) after expression of the plasmid pGroE4
Experiment: fluorescence polarisation; 30×10^-9 M denatured fluorescein-labeled protein titrated with GroEL in 20 mM Tris–HCl, pH 7.5, 20 mM DTT, 10 mM MgCl2, 300 mM NaCl; apparent constant, counted on GroEL cavities
Conditions: both partners purified

T1 sequence (P0A6F5 whole entry): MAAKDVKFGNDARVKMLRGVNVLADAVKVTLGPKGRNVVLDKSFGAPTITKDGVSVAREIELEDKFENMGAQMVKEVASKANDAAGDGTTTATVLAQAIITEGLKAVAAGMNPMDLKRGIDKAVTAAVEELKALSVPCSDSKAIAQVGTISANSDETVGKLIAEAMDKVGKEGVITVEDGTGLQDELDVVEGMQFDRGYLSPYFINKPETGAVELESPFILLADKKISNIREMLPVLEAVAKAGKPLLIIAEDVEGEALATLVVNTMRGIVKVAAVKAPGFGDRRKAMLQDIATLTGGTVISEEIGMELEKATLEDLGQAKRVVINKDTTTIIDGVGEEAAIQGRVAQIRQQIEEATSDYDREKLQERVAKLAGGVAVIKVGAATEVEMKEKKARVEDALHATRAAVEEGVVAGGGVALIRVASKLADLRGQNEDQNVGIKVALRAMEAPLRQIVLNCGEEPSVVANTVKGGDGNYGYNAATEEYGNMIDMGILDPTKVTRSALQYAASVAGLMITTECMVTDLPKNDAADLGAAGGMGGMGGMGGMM

B1: fluorescein-labeled human α-lactalbumin (natural protein, UniProt P00709 20-142, looked up)
chain: KQFTKCELSQLLKDIDGYGGIALPELICTMFHTSGYDTQAIVENNESTEYGLFQISNKLWCKSSQVPQSRNICDISCDKFLDDDITDDIMCAKKILDIKGIDYWLAHKALCTEKLEQWLCEKL
modifications: fluorescein label (fluorescein isothiocyanate), position not stated
notes: Human α-lactalbumin; The same labelled protein was used native (20 mM Tris-HCl, pH 7.5) and denatured (buffer with 20 mM DTT); the assays tell the two states apart; also called native α-lactalbumin; denatured α-lactalbumin; source: bought: Sigma (USA), used without additional purification; labelled with fluorescein isothiocyanate, PD-10 and MonoQ
Kd: 1.6 nM
